Experimental findings from patent publication US20210388087A1 (Chugai, published 2021) are described below.

To fix the notation:
B1: H183/L072 VL S52E (antibody, name in Kabat numbering, V domains shown)
VH: QVQLVESGGGLVQPGRSLRLSCAASGFTFSNAWMHWVRQAPGKGLEWVAQIKDKGNAYAAYYAPSVKGRFTISRDDSKNSIYLQMNSLKTEDTAVYYCHYVHYASASTVLPAFGVDAWGQGTTVTVSS
VL: DIVMTQSPLSLPVTPGEPASISCQASQELVHMNRNTYLHWYQQKPGQAPRLLIYKVENRFPGVPDRFSGSGSGTDFTLKISRVEAEDVGVYYCAQGTSVPFTFGQGTKLEIK
notes: Dual-Ig
B2: H183/L072 VL S52P (antibody, name in Kabat numbering, V domains shown)
VH: B1 VH
VL: B1 VL with E57P
notes: Dual-Ig
B3: H183/L072 VL T31A (antibody, name in Kabat numbering, V domains shown)
VH: B1 VH
VL: B1 VL with T36A, E57S
notes: Dual-Ig
B4: H183/L072 VL S93H (antibody, name in Kabat numbering, V domains shown)
VH: B1 VH
VL: B1 VL with E57S, S98H
notes: Dual-Ig
B5: H183/L072 VL S93M (antibody, name in Kabat numbering, V domains shown)
VH: B1 VH
VL: B1 VL with E57S, S98M
notes: Dual-Ig
B6: H183/L072 VL S52I (antibody, name in Kabat numbering, V domains shown)
VH: B1 VH
VL: B1 VL with E57I
notes: Dual-Ig
B7: H183/L072 VL T31R (antibody, name in Kabat numbering, V domains shown)
VH: B1 VH
VL: B1 VL with T36R, E57S
notes: Dual-Ig
B8: H183/L072 VL S52K (antibody, name in Kabat numbering, V domains shown)
VH: B1 VH
VL: B1 VL with E57K
notes: Dual-Ig
B9: H183/L072 VL S52L (antibody, name in Kabat numbering, V domains shown)
VH: B1 VH
VL: B1 VL with E57L
notes: Dual-Ig
B10: H183/L072 VL S93D (antibody, name in Kabat numbering, V domains shown)
VH: B1 VH
VL: B1 VL with E57S, S98D
notes: Dual-Ig
B11: H183/L072 VL S52F (antibody, name in Kabat numbering, V domains shown)
VH: B1 VH
VL: B1 VL with E57F
notes: Dual-Ig
B12: H183/L072 VL S93E (antibody, name in Kabat numbering, V domains shown)
VH: B1 VH
VL: B1 VL with E57S, S98E
notes: Dual-Ig
B13: H183/L072 VL S93V (antibody, name in Kabat numbering, V domains shown)
VH: B1 VH
VL: B1 VL with E57S, S98V
notes: Dual-Ig
B14: H183/L072 VL T31P (antibody, name in Kabat numbering, V domains shown)
VH: B1 VH
VL: B1 VL with T36P, E57S
notes: Dual-Ig
B15: H183/L072 VL S52R (antibody, name in Kabat numbering, V domains shown)
VH: B1 VH
VL: B1 VL with E57R
notes: Dual-Ig
B16: H183/L072 VL S52Q (antibody, name in Kabat numbering, V domains shown)
VH: B1 VH
VL: B1 VL with E57Q
notes: Dual-Ig
B17: H183/L072 VL T31K (antibody, name in Kabat numbering, V domains shown)
VH: B1 VH
VL: B1 VL with T36K, E57S
notes: Dual-Ig
B18: H183/L072 VL T31D (antibody, name in Kabat numbering, V domains shown)
VH: B1 VH
VL: B1 VL with T36D, E57S
notes: Dual-Ig
B19: H183/L072 VL S52V (antibody, name in Kabat numbering, V domains shown)
VH: B1 VH
VL: B1 VL with E57V
notes: Dual-Ig
B20: H183/L072 VL T31F (antibody, name in Kabat numbering, V domains shown)
VH: B1 VH
VL: B1 VL with T36F, E57S
notes: Dual-Ig
B21: H183/L072 VL S52T (antibody, name in Kabat numbering, V domains shown)
VH: B1 VH
VL: B1 VL with E57T
notes: Dual-Ig
B22: H183/L072 VL S93A (antibody, name in Kabat numbering, V domains shown)
VH: B1 VH
VL: B1 VL with E57S, S98A
notes: Dual-Ig
B23: H183/L072 VL T31I (antibody, name in Kabat numbering, V domains shown)
VH: B1 VH
VL: B1 VL with T36I, E57S
notes: Dual-Ig
B24: H183/L072 VL S93T (antibody, name in Kabat numbering, V domains shown)
VH: B1 VH
VL: B1 VL with E57S, S98T
notes: Dual-Ig
B25: H183/L072 VL S93Q (antibody, name in Kabat numbering, V domains shown)
VH: B1 VH
VL: B1 VL with E57S, S98Q
notes: Dual-Ig
B26: H183/L072 VL S93F (antibody, name in Kabat numbering, V domains shown)
VH: B1 VH
VL: B1 VL with E57S, S98F
notes: Dual-Ig
B27: H183/L072 VL S93I (antibody, name in Kabat numbering, V domains shown)
VH: B1 VH
VL: B1 VL with E57S, S98I
notes: Dual-Ig
B28: H183/L072 VL S52M (antibody, name in Kabat numbering, V domains shown)
VH: B1 VH
VL: B1 VL with E57M
notes: Dual-Ig
B29: H183/L072 VL T31S (antibody, name in Kabat numbering, V domains shown)
VH: B1 VH
VL: B1 VL with T36S, E57S
notes: Dual-Ig
B30: H183/L072 VL S93P (antibody, name in Kabat numbering, V domains shown)
VH: B1 VH
VL: B1 VL with E57S, S98P
notes: Dual-Ig
B31: H183/L072 VL S52W (antibody, name in Kabat numbering, V domains shown)
VH: B1 VH
VL: B1 VL with E57W
notes: Dual-Ig
B32: H183/L072 VL S93W (antibody, name in Kabat numbering, V domains shown)
VH: B1 VH
VL: B1 VL with E57S, S98W
notes: Dual-Ig
B33: H183/L072 VL T31M (antibody, name in Kabat numbering, V domains shown)
VH: B1 VH
VL: B1 VL with T36M, E57S
notes: Dual-Ig
B34: H183/L072 VL S52G (antibody, name in Kabat numbering, V domains shown)
VH: B1 VH
VL: B1 VL with E57G
notes: Dual-Ig
B35: H183/L072 VL T31E (antibody, name in Kabat numbering, V domains shown)
VH: B1 VH
VL: B1 VL with T36E, E57S
notes: Dual-Ig
B36: H183/L072 VL S52N (antibody, name in Kabat numbering, V domains shown)
VH: B1 VH
VL: B1 VL with E57N
notes: Dual-Ig
B37: H183/L072 VL S52H (antibody, name in Kabat numbering, V domains shown)
VH: B1 VH
VL: B1 VL with E57H
notes: Dual-Ig
B38: H183/L072 VL S93L (antibody, name in Kabat numbering, V domains shown)
VH: B1 VH
VL: B1 VL with E57S, S98L
notes: Dual-Ig
B39: H183/L072 VL S93K (antibody, name in Kabat numbering, V domains shown)
VH: B1 VH
VL: B1 VL with E57S, S98K
notes: Dual-Ig
B40: H183/L072 VL T31Q (antibody, name in Kabat numbering, V domains shown)
VH: B1 VH
VL: B1 VL with T36Q, E57S
notes: Dual-Ig
B41: H183/L072 VL S93G (antibody, name in Kabat numbering, V domains shown)
VH: B1 VH
VL: B1 VL with E57S, S98G
notes: Dual-Ig
B42: H183/L072 VL S93N (antibody, name in Kabat numbering, V domains shown)
VH: B1 VH
VL: B1 VL with E57S, S98N
notes: Dual-Ig
B43: H183/L072 VL S93R (antibody, name in Kabat numbering, V domains shown)
VH: B1 VH
VL: B1 VL with E57S, S98R
notes: Dual-Ig
B44: H183/L072 VL T31L (antibody, name in Kabat numbering, V domains shown)
VH: B1 VH
VL: B1 VL with T36L, E57S
notes: Dual-Ig

Substitutions are numbered along the chain they refer to.

The target in this assay is T1, Human CD137 ECD (human).
T1 construct: entry includes C-terminal His-tag and biotin acceptor peptide; also called human CD137 extracellular domain; 4-1BB
T1 sequence (chain, as listed by the source limits assumed): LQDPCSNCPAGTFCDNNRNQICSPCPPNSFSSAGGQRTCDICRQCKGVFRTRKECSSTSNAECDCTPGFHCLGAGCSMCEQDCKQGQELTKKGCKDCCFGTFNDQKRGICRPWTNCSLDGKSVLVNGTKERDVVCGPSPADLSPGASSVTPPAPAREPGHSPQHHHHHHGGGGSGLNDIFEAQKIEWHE
Put plainly: Biacore SPR, vs parent H183/L072. In general terms: Surface plasmon resonance follows binding to a sensor surface in real time, without labels.
As to B1, the “fold change of affinity” value stood at 1 fold.

B2: the “fold change of affinity” value stood at 0.3 fold.

On to B3, for which the “fold change of affinity” value worked out at 0.4 fold.

B4: the “fold change of affinity” value was found to be 1.3 fold.

Consider B5, for which the “fold change of affinity” value stood at 1 fold.

B6: the “fold change of affinity” value was 1.4 fold.

With B7, the “fold change of affinity” value worked out at 0.4 fold.

For B8, the “fold change of affinity” value was determined as 1.2 fold.

In the case of B9, the “fold change of affinity” value is 1.2 fold.

Consider B10, for which the “fold change of affinity” value was found to be 0.7 fold.

Consider B11, for which the “fold change of affinity” value came to 1.2 fold.

For B12, the “fold change of affinity” value amounted to 1 fold.

B13: the “fold change of affinity” value amounted to 1.1 fold.

Turning to B14, the “fold change of affinity” value came out at 0.4 fold.

In the case of B15, the “fold change of affinity” value was determined as 1 fold.

With B16, the “fold change of affinity” value was 1 fold.

For the molecule B17, the “fold change of affinity” value turned out to be 0.4 fold.

For the molecule B18, the “fold change of affinity” value was determined as 0.1 fold.

On to B19, for which the “fold change of affinity” value was 1.3 fold.

Regarding B20, the “fold change of affinity” value stood at 0.2 fold.

Regarding B21, the “fold change of affinity” value was 1 fold.

Regarding B22, the “fold change of affinity” value was found to be 0.9 fold.

B23: the “fold change of affinity” value stood at 0.9 fold.

With B24, the “fold change of affinity” value came out at 1.1 fold.

On to B25, for which the “fold change of affinity” value turned out to be 1.1 fold.

Consider B26, for which the “fold change of affinity” value was found to be 1 fold.

With B27, the “fold change of affinity” value turned out to be 1.1 fold.

In the case of B28, the “fold change of affinity” value turned out to be 1.1 fold.

Consider B29, for which the “fold change of affinity” value came out at 0.4 fold.

Take B30: the “fold change of affinity” value was 0 fold.

Turning to B31, the “fold change of affinity” value was 1 fold.

With B32, the “fold change of affinity” value came to 1.2 fold.

For B33, the “fold change of affinity” value is 0.3 fold.

Turning to B34, the “fold change of affinity” value was determined as 0.8 fold.

Regarding B35, the “fold change of affinity” value came out at 0.4 fold.

As for B36, the “fold change of affinity” value amounted to 1 fold.

Turning to B37, the “fold change of affinity” value was 1.2 fold.

For B38, the “fold change of affinity” value was 1.3 fold.

Consider B39, for which the “fold change of affinity” value was determined as 1.1 fold.

Regarding B40, the “fold change of affinity” value amounted to 0.5 fold.

As to B41, the “fold change of affinity” value amounted to 0.4 fold.

For the molecule B42, the “fold change of affinity” value amounted to 1 fold.

Take B43: the “fold change of affinity” value is 1 fold.

With B44, the “fold change of affinity” value was 0.5 fold.
